Data from patent publication US20210284724A1 (I MAB BIOPHARMA US, published 2021).
Numbering of substitutions follows the chain as printed. Numbers in names are those of the source. Read-outs that look alike come from different tables or passages of the source. Values belong to the binder of their own block, whether it stands above or below them.

Columns and labels:
[1] = molecular target: T1, human CXCL13 (human, UniProt O43927 23-109); assay: ELISA, coated antigen, chimeric IgG1
T1 construct: also called huCXCL13; rhCXCL13
T1 sequence (looked up): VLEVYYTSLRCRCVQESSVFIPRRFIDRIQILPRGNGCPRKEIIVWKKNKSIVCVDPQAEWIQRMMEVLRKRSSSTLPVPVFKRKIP
Description: (§1) Elisa based binding assay. […] Briefly, 100 μl of human CXCL13 or cynomolgus CXCL13 was coated at 0.5 μg/ml overnight and then blocked by 200 μl of 5% BSA in PBS. Serial diluted antibodies were incubated with the coated antigen for 30 min at RT. The resulting plates were washed with PBS/T and incubated with goat anti-human IgG Fc-HRP for 30 min RT. The plates were developed with TMB substrate after washing with 1×PBST for 5 times and reaction stopped with 1N HCl and analyzed by spectrophotometer at OD 450-630 nm.

[2] = molecular target: T2, cynomolgus CXCL13 (cynomolgus, UniProt H6WS58 23-109); assay: ELISA, coated antigen, chimeric IgG1
T2 construct: also called cynoCXCL13; Cyno CXCL13
T2 sequence: T1 sequence (looked up) with S8H, L32S, I52V, M65I, V68M, R72K, L77P
Description: as §1

[3] = molecular target: T1, human CXCL13; assay: cell-based blocking ELISA, CXCL13 to CHO-K1-CXCR5
Description: This example tested the blocking of the anti-CXCL13 chimeric antibodies to CHO-K1-CXCR5 cells. Briefly, 5×10⁴ CHO-K1-CXCR5 cells were plated in 96-well plate with 100 μl of culture medium and incubated at 37° C. overnight. Cells were fixed with 100 μl of 2% PFA at RT for 1 hr after washing with PBS for 1 time. Samples were blocked with 1% BSA in PBST for 1 hr at RT. Antibodies were serial diluted from 50 μg/ml by 3-fold with 1% BSA/PBST and pre-incubated with equal volume of 0.3 μg/ml human CXCL13 for 30 min at RT. 100 μl of antibody-antigen complex was transferred into each cell wells for 30 min at RT. Samples were washed with 1×PBST for 3 times and 100 μl of 3 μg/ml of human Mab5261 antibody was added into each well to capture human CXCL13 and anti-human Fc-HRP was used to indirectly detect human CXCL13 when it bound to CHO-K1-CXCR5 cells.
Then read at 450 nm. […] Among all clones, 415A3D1, 64C10G1, 1H3A11, 414D10F5, 411A11E9, 21H12D9, 71F4A3, 329F2E1 show completely blocking activity and 408E3F3, 19H7E10, 339A6E7 appeared to be partial blockers.

[4] = molecular target: T1, human CXCL13; assay: ELISA, huCXCL13 coated on the plate, chimeric IgG1 titrated, OD450
Method in brief: (§2)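 Following overnight coating with 100 μl human CXCL13 at 0.5 μg/ml and blocking with 200 μl 5% BSA in PBS, plates received serially diluted IgG1 antibodies for 30 min at room temperature. Bound antibody was detected, after PBS/T washes, with goat anti-human IgG Fc-HRP for 30 min at room temperature. From this antibody titration, the EC50 was determined.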

[5] = molecular target: T1, human CXCL13; assay: SPR Biacore T200
Description: In the first approach, mutations were chosen to target the hotspots in LCDR1, HCDR2 and HCDR3. Usually, CDR3 contributes most to antigen binding and heavy chain is more important than light chain for antigen binding. Moreover, LCDR1 is important for antigen binding. For the first trial, random mutations were targeted to hotspots in LCDR1, HCDR2 and HCDR3. Eliminate hotspots that code for conserved and buried amino acids in CDRs. […] After finishing construction of phage library, antigen CXCL13 screening was followed. Antibodies of these sequences were generated, and affinity testing was performed by Biacore T200.

[6] = molecular target: T1, human CXCL13; assay: SPR Biacore T200; remark: listed apart in the source
Description: (§3) In the second approach, mutations were carried out by multiple libraries including 4 different sub libraries, such as saturated mutation libraries by CDR walking for CDR L1, CDR L3, CDR H3 or CDR L2, CDR H1, CDR H2 and saturated mutation libraries by three aa mutated continuously for CDR H3 or CDR L3. After finishing construction of phage sub libraries, antigen CXCL13 screening followed. Antibodies of these sequences were generated, and affinity testing was performed by Biacore T200. To further optimize the antibodies, the lead clones were then back mutated to its humanized counterpart one aa by one aa. Sequences were generated and synthesized for antibodies. Affinity was tested by Biacore T200.

[7] = molecular target: T1, human CXCL13; assay: SPR Biacore T200; remark: listed apart in the source
Description: as §3

[8] = molecular target: T1, human CXCL13; assay: ELISA, huCXCL13 coated on the plate, full length humanized IgG1 titrated, OD450
[9] = molecular target: T1, human CXCL13; assay: ELISA, huCXCL13 coated on the plate, chimeric IgG1 titrated, OD450; remark: listed apart in the source
Method in brief: as §2

[10] = molecular target: T1, human CXCL13; assay: ELISA, huCXCL13 coated on the plate, full length humanized IgG1 titrated, OD450; remark: listed apart in the source
Method in brief: as §2

EC50 [1]: 0.0401 µg/mL
EC50 [2]: 0.0563 µg/mL
IC50 [3]: 1.1 µg/mL
EC50 [4]: 0.0305 nM
B1: 64C10G1 chimeric human IgG1 antibody (antibody, V domains shown)
VH: EVQLVESGGGLVKPGGSLKLSCAASGFTFSSYAMSWVRQTPEKRLEWVATISDGGSDAYYPDNVKGRFTISRDNAKNNLYLQMSHLKSEDTAMYYCARDYYGSGYEDSPMDYWGQGTSVTVSS
VL: DIQMTQSPSSLSASLGGKVTITCKASQDINKYIAWYQHKPGKGPRLLIHYTSTLQPGIPSRFSGSGSGRDYSFSISNLEPEDFATYYCLQYDNLYTFGGGTKLEIK
notes: Chimeric human IgG1; also called chimeric 64C10G1

EC50 [1]: 0.0553 µg/mL
EC50 [2]: 0.144 µg/mL
IC50 [3]: 1.19 µg/mL
B2: 1H3A11 chimeric human IgG1 antibody (antibody, V domains shown)
VH: B1 VH with A58T, G104S, S108Y, P109A
VL: B1 VL with A34T, F83I
notes: Chimeric human IgG1

EC50 [1]: 0.0485 µg/mL
EC50 [2]: 0.1 µg/mL
IC50 [3]: 1.71 µg/mL
B3: 411A11E9 chimeric human IgG1 antibody (antibody, V domains shown)
VH: EVQLVESGGGLVQPGGSLKLSCVVSGFTFSDYYMAWVRQTPTKGLEWVASINYDGGDTYYRDSVKGRFTVSRNNAKSSLFLQMDSLRSEDTATYYCKTEEDYDGSYVMDAWGQGASVIVSS
VL: DIQMTQSPSFLSASVGDRVTISCKASQNINKELTWYQQKLGKAPKRLIYNTNILQTGIPSRFSGSGSNTDYTLTISSLQPEDFATYFCLQQSSLYTFGAGTKLELK
notes: Chimeric human IgG1

apparent kon (pooled screen) [5]: 377000 M⁻¹ s⁻¹
apparent koff (pooled screen) [6]: 0.00126 s⁻¹
apparent Kd (pooled screen) [7]: 2.58 nM
apparent koff (pooled screen) [7]: 0.000645 s⁻¹
apparent kon (pooled screen) [7]: 250000 M⁻¹ s⁻¹
apparent EC50 (pooled screen) [8]: 0.108 nM
B4: 71F4A3-VH1VL1 (Hz71F4) (D54E) humanized IgG1 (antibody, V domains shown)
VH: EVQLVESGGGLVQPGGSLRLSCAASGIDFSRYWMSWVRQAPGKGLEWVAEINPESSTINYAPSLKDRFTISRDNAKNSLYLQMNSLRAEDTAVYYCARQDDYEYYAMDYWGQGTTVTVSS
VL: DIQMTQSPSSLSASVGDRVTITCKASQDVNTGVAWYQQKPGKAPKLLIYSASYRYTGVPSRFSGSGSGTDFTFTISSLQPEDIATYYCQQYYSTPLTFGGGTKLEIK
notes: Full length IgG1, human gamma 1 and kappa; also called Hz71F4A3

koff [6]: 0.000403 s⁻¹
B5: 005-3-23 (antibody, V domains shown)
VH: B4 VH with D100E, M107L
VL: B4 VL with A34Y, Y91G

koff [6]: 0.000776 s⁻¹
B6: 005-2-45 (antibody, V domains shown)
VH: B4 VH with Y102T, E103R
VL: B4 VL

koff [6]: 0.000158 s⁻¹
Kd [7]: 1.24 nM
koff [7]: 0.000153 s⁻¹
kon [7]: 124000 M⁻¹ s⁻¹
B7: 005-3-18 (antibody, V domains shown)
VH: B4 VH with A106T
VL: B4 VL with A25V, Y92W

EC50 [8]: 0.0961 nM
B8: 71F4A3-VH1VL2 (D54E) humanized IgG1 (antibody, V domains shown)
VH: B4 VH
VL: B4 VL with L78V
notes: Full length IgG1, human gamma 1 and kappa constant domains

EC50 [1]: 0.0628 µg/mL
EC50 [2]: 1.19 µg/mL
IC50 [3]: 1.26 µg/mL
B9: 414D10F5 chimeric human IgG1 antibody (antibody, V domains shown)
VH: EVQLAESGGGLVQPGRSLKLSCSASGFTFSDYYMAWFRQAPPKGLEWVASISYDGGDSFYRDSVKGRFTISRDNAKSSLYLQMDSLRSEDTATYYCTTEEDYSGSFPDYWGQGVMVTVSS
VL: DIQMTQSPSFLSASVGDRVTINCKASQNINKYLNWYQQKLGEAPKRLIYDTNNLQAGIPSRFSGSGSGTDYTLTINSLQPEDFATYFCLQHNSLYTFGGGTKLELK
notes: Chimeric human IgG1

EC50 [1]: 0.0729 µg/mL
EC50 [2]: 0.0469 µg/mL
IC50 [3]: 0.985 µg/mL
B10: 415A3D1 chimeric human IgG1 antibody (antibody, V domains shown)
VH: EVKLLESGGGLVQAGGSMRLSCGAFGFTVTDFYINWIRQPAGKAPEWLGFMRNKANGYTTEYNPSVKGRFTISRNNTQNMPYLQMNTLRTEDTAIYYCARSRYNADDYYVGVMDVWGQGASVTVSS
VL: DIQMTQFPASLSASLGETVSIECLASEDIYNNLAWYQQKPGKSPQLLIYYTNSLQDGVPSRFSGTGSGTQYSLKINSLESEDAATYFCLQDSEYPWTFGGGTKLKLK
notes: Chimeric human IgG1; label 415A3D1 read as clone 415A3D1F4

EC50 [1]: 0.0536 µg/mL
EC50 [2]: 0.0488 µg/mL
IC50 [3]: 1.89 µg/mL
B11: 21H12D9 chimeric human IgG1 antibody (antibody, V domains shown)
VH: EVQLQQSGPVLVRPGASVKMSCKASGYTFTDYYMNWVKQSHGKSLEWIGVINPNNGGTTYKEKFKGKATLTVDKSSGTAYMELNSLTSEDSAVYYCARDDYDAGYWGQGTTLTVSS
VL: DIVMTQFQKFMSTTVGDRVSITCKASQNVDTAVAWYQHKPGQSPKLLIYSASHRYTGVPDRFTGSGSGTDFTLTISNVQSEDLADYFCQQYTDFPLTFGAGTKLELK
notes: Chimeric human IgG1

EC50 [1]: 0.0381 µg/mL
EC50 [2]: 0.0814 µg/mL
IC50 [3]: 3.02 µg/mL
EC50 [9]: 0.116 nM
B12: 71F4A3 chimeric human IgG1 antibody (antibody, V domains shown)
VH: EVKLLQSGGGLVQPGGSLKLSCAASGIDFSRYWMSWVRRAPGKGLEWIGEINPDSSTINYAPSLKDKFIISRDNAKNTLYLQMSKVRSEDTALYYCARQDDYEYYAMDYWGQGTSVTVSS
VL: DIVMTQSHKSMSTSVGDRVSITCKASQDVNTGVAWYRQKPGQSPKLLIYSASYRYTGVPDRFTGSGSGTDFTFTISSVQAEDLAVYYCQQYYSTPLTFGAGTKLELK
notes: Chimeric human IgG1; also called chimeric 71F4A3

EC50 [1]: 0.0511 µg/mL
EC50 [2]: 0.0416 µg/mL
IC50 [3]: 3.55 µg/mL
B13: 329F2E1 chimeric human IgG1 antibody (antibody, V domains shown)
VH: B12 VH with E103D
VL: B12 VL with S10F, N30S, R37Q, G68R, A80T, L83P, Q89H, S93T, T94I, K103E
notes: Chimeric human IgG1

EC50 [10]: 0.0664 nM
B14: 64C10G1-VH1VL3 (D53E, D107E) humanized IgG1 (antibody, V domains shown)
VH: EVQLVESGGGLVQPGGSLRLSCAASGFTFSSYAMSWVRQAPGKGLEWVATISEGGSDAYYPDNVKGRFTISRDNAKNSLYLQMNSLRAEDTAVYYCARDYYGSGYEESPMDYWGQGTLVTVSS
VL: DIQMTQSPSSLSASVGDRVTITCKASQDINKYIAWYQQKPGKAPKLLIHYTSTLQPGIPSRFSGSGSGTDFTFTISSLQPEDFATYYCLQYDNLYTFGGGTKLEIK
notes: as for B8
